A short description of data set [1]: Spectroscopic characterization of purified Arch WT and D95N. In kind it is physicochemical. How it is done:
FIGS. 17A-17C show pH-dependent spectra of Arch 3 WT and D95N. […] At neutral pH, Arch absorbed maximally at 558 nm. Fluorescence emission (dashed line) was recorded on 2 μM protein solubilized in 1% DM, with λexc=532 nm. […] The absorption maximum was at 585 nm. […] Singular Value Decomposition of absorption spectra between 400-750 nm was used to calculate the fraction of the SB in the protonated state as a function of pH. The result was fit to a Hill function to determine the pKa of the SB.
Arch and its D95N mutant were expressed and purified from E. coli, following Bergo, V., et al. (Conformational changes detected in a sensory rhodopsin II-transducer complex. J. Biol. Chem. 278, 36556-36562 (2003)). Briefly, E. coli (strain BL21, pet28b plasmid) was grown in 1 L of LB with 100 μg/mL kanamycin, to an O.D 600 of 0.4 at 37° C. All-trans retinal (5 μM) and inducer (IPTG 0.5 mM) were added and cells were grown for an additional 3.5 hours in the dark. Cells were harvested by centrifugation and resuspended in 50 mM Tris, 2 mM MgCl2 at pH 7.3 and lysed with a tip sonicator for 5 minutes. The lysate was centrifuged and the pellet was resuspended in PBS supplemented with 1.5% dodecyl maltoside (DM). The mixture was homogenized with a glass/teflon Potter Elvehjem homogenizer and centrifuged again. The supernatant was concentrated and washed using a centricon 30k MWCO filter to a final volume of 3 mL.
The absorption spectra of purified Arch 3 WT and D95N were determined using an Ocean Optics USB4000 spectrometer with a DT-MINI-2-GS light source. Absorption spectra, for Arch 3 WT and D95N, were measured as a function of pH between pH 6 and 11. To determine the fluorescence emission spectra, proteins in a quartz cuvette were illuminated with the uncollimated beam of a 100 mW, 532 nm laser (Dragon Lasers, 532GLM100) or a 25 mW, 633 nm HeNe laser (Spectra-Physics). Scattered laser light was blocked with a 532 nm Raman notch filter (Omega Optical, XR03) or a 710/100 emission filter (Chroma), and fluorescence was collected perpendicular to the illumination with a 1000 micron fiber, which passed the light to an Ocean Optics QE65000 spectrometer. Spectra were integrated for 2 seconds.
The fluorescence quantum yields of Arch 3 WT and D95N were determined by comparing the integrated emission intensity to emission of a sample of the dye ALEXA FLUOR® 647 Conjugate. Briefly, the concentrations of micromolar solutions of dye and protein were determined using a visible absorption spectrum. […] The fluorescence emission spectra of dye and protein samples were measured with 633 nm excitation. The quantum yield was then determined by the formula
where Fl is the integrated fluorescence from 660 to 760 nm, ε is the extinction coefficient at 633 nm and c is the concentration.

Data set [2] relates to cultured rat hippocampal neurons. As to the kind of experiment: Optical recording of action potentials under whole cell current clamp. In kind it is cell-based. The source says:
We tested Arch 3 as a voltage indicator in cultured rat hippocampal neurons, using viral delivery. […] Individual spikes were accompanied by clearly identifiable increases of fluorescence (FIG. 7A). At a 2 kHz image acquisition rate, the signal-to-noise ratio in the fluorescence (spike amplitude:baseline noise) was 10.5.
Simultaneous fluorescence and whole-cell patch clamp recordings were acquired on a home-built, inverted epifluorescence microscope at room temperature. A diode laser operating at 100 mW, 640 nm (CrystaLaser, DL638-100-O) provided wide-field illumination at an intensity typically between 500-2000 W/cm^2. To minimize background signal from out-of-focus debris, illumination was often performed in through-the-objective total internal reflection fluorescence (TIRF) mode. Fluorescence emission was collected using a 60×, 1.45 NA oil immersion objective (Olympus), and separated from scattered excitation using a 660-760 nm bandpass emission filter (Chroma). For fast imaging of dynamic fluorescence responses and action potentials, images were acquired on an Andor iXon^+ 860 camera operating at up to 2,000 frames/s (using a small region of interest and pixel binning). Slower images with higher spatial resolution were acquired on an Andor iXon^+ 897 EMCCD. Custom software written in LabView (National Instruments) was used to synchronize illumination, collection of images, recording of membrane potential and cell current, and application of electrical stimuli to the cell.
E18 rat hippocampi were purchased from BrainBits and mechanically dissociated in the presence of 1 mg/mL papain (Worthington) before plating at 5,000-30,000 cells per dish on poly-L-lysine and Matrigel-coated (BD Biosciences) glass-bottom dishes. Cells were incubated in N+ medium (100 mL Neurobasal medium, 2 mL B27 supplement, 0.5 mM glutamine, 25 μM glutamate, penicillin-streptomycin) for 3 hours. […]
A spike identification algorithm was developed that could be applied either to electrically recorded V(t) or to optically determined V(t). […]

B1: Arch 3 WT: Archaerhodopsin 3, light-driven proton pump from Halorubrum sodomense, used as fluorescent voltage indicator (protein)
chain: MDPIALQAGYDLLGDGRPETLWLGIGTLLMLIGTFYFLVRGWGVTDKDAREYYAVTILVPGIASAAYLSMFFGIGLTEVTVGGEMLDIYYARYADWLFTTPLLLLDLALLAKVDRVTIGTLVGVDALMIVTGLIGALSHTAIARYSWWLFSTICMIVVLYFLATSLRSAAKERGPEVASTFNTLTALVLVLWTAYPILWIIGTEGAGVVGLGIETLLFMVLDVTAKVGFGFILLRSRAILGDTEAPEPSAGADVSAAD
modifications: Halorubrum sodomense
notes: Archaerhodopsin 3, light-driven proton pump from Halorubrum sodomense, used as fluorescent voltage indicator
On to B1, for which the ε633 in data set [1] (calibrated assuming peak extinction coefficient of Bacteriorhodopsin, 63,000 M^−1 cm^−1) is 6,300 M^−1cm^−1. In addition, in data set [1] (comparison to Alexa 647, excitation at 633 nm, listed as Arch WT), the QY is on record as 9 × 10^−4. In data set [2] (2 kHz image acquisition rate), the “signal-to-noise ratio in the fluorescence (spike amplitude:baseline noise)” value came to 10.5. In data set [2] (n=269 spikes), this molecule showed a false-positive rate of 0.7%. For the same molecule, the “change in resting potential or spike frequency during observation” value in data set [2] (up to 4 minutes of cumulative exposure) is “no detectable change in resting potential or spike frequency”.

(Values after US9057734B2, “Optogenetic probes for measuring membrane potential” (President and Fellows of Harvard College, priority 2010, dated 2015).)
